Consider 4 molecules from patent US12365710B2, “HMGB1 protein derivatives for the removal of biofilms” (RESEARCH INSTITUTE AT NATIONWIDE CHILDREN'S HOSPITAL, priority 2018, dated 2025).

Assay [1] relates to B. cenocepacia biofilm. In kind it is cell-based, Burkholderia cenocepacia. Particulars: 200 nM added at 24 h, 16 h exposure.
Assay [2] relates to UPEC biofilm. The assay can be described thus: in vitro disruption of established biofilms, CLSM and COMSTAT. Particulars: added at 24 h, 16 h exposure; 200 nM unless stated. In kind it is cell-based, Uropathogenic E. coli. How it is done: (§1) FIGS. 5A-5E: Anti-biofilm effect of HMGB1 variants on high priority bacterial pathogens. Indicated HMGB1 variants or antibodies against DNABII proteins (α-1HFEc 1gG, 1 μM) were added at 24 h to the respective preformed bacterial biofilms, in vitro. After 16 h of Incubation, biofilms were stained with LIVE/DEAD®, then visualized via confocal laser scanning microscopy. Images were analyzed by COMSTAT to calculate average thickness and comparison to control was plotted. (FIG. 5A) Full-length HMGB1 isoforms (200 nM unless otherwise indicated) added to UPEC, B. cenocepacia, NTHI, or ESKAPE pathogens. 800 nM rHMGB1 and 200 nM mHMGB1 were added for S. aureus (ESKAPE). 800 nM rHMGB1, 800 nM mHMGB1, or 3.3 μM of α-1HFEc 1gG were added for E. faecium (ESKAPE) and were incubated for 1 h as opposed to 16 h to avoid potential degradation by E. faecium proteases. (FIG. 5B) Representative images of UPEC biofilms incubated with increasing concentrations of rHMGB1. (FIG. 5C) Individual domains of HMGB1 (200 nM) were tested for anti-biofilm activity as above (dotted line indicates control values). Bars represent the SEM. Statistical significance compared to control was assessed with unpaired t-tests, *P<0.05. […] (FIGS. 5D-5E) HMGB1 and variants disrupt preformed Klebsiella pneumoniae biofilms. rHMGB1, HMGB1 C45S (mHMGB1), bovine HMGB1 (bHMGB1), B box, B Box C106S (mB Box), A Box, and A+B Box were added (200 nM) at 24 h to preformed K. pneumoniae biofilms. After 16 h of incubation, biofilms were stained with LIVE/DEAD®, then visualized via confocal laser scanning microscopy. Images were analyzed by COMSTAT to calculate average thickness and total biomass. Error bars represent the SEM. ***P<0.0001; ns=not significant.
(§2) HMGB1 disrupts pathogenic biofilms: To test the effect of HMGB1 on bacterial biofilms (FIG. 5), Applicant cloned (IMPACT®, NEB Ipswich, MA), expressed (in E. coli), and purified (heparin sepharose chromatography to >95% purity) tagless human recombinant HMGB1 (rHMGB1) and an engineered C45 S variant (mHMGB1) that mimics the reduced form of HMGB1. rHMGB1 readily forms an intramolecular disulfide bond between C23 and C45 that contributes to pro-inflammatory activity whereas mHMGB1 cannot. These HMGB1 isoforms were evaluated for ability to disrupt established biofilms (formed for 24 h prior to addition). After a 16 h exposure to a single dose of rHMGB1 (200 nM; ˜25-fold greater than typical sepsis serum concentration, but not able to directly induce sepsis), biofilms formed by a wide variety of high priority species were stained with LIVE/DEAD®, analyzed using confocal laser scanning microscopy (CLSM) and COMSTAT analysis and compared to control biofilms. […] Preliminary analysis of PTMs by LC-MS/MS analysis (MS Bioworks, LLC Ann Arbor, MI) indicated minimal modification of both rHMGB1 and nHMGB1 (<20% of the observed peptides had any given PTM, FIG. 1C). […] Thus, while there are intrinsic differences in sensitivity among pathogens, the biofilms formed by all of the tested high priority pathogens were susceptible to a single dose of these non-antimicrobial compounds.
HMGB1 domain structure and anti-biofilm activity: Applicant then produced recombinant HMGB1 truncation variants, of 1) the A Box, a self-contained DNA-binding domain (residues 1-89); 2) an A-B Boxes construct (lacks the C tail; residues 1-185); and 3) the B Box (residues 80 to 176, FIGS. 1A and 1C). […] Since only the B Box can modulate DNA bending, without being bound by theory, it was hypothesized that HMGB1 disrupts biofilms at least in part via DNA-binding/bending. As the B Box is reported to contain pro-inflammatory activity, mediated primarily through interactions with TLR4-MD2 that are dependent on residue C106, Applicant created a modified B Box variant (mB Box) with a C106S mutation (FIGS. 1A and 1C).

For assay [3], the system named is NTHI biofilm. Described as above. The format is cell-based, Nontypeable Haemophilus influenzae. The following applies: 200 nM added at 24 h, 16 h exposure. How it is done: as §1, §2
HMGB1 domain structure and anti-biofilm activity: Applicant then produced recombinant HMGB1 truncation variants, of 1) the A Box, a self-contained DNA-binding domain (residues 1-89); 2) an A-B Boxes construct (lacks the C tail; residues 1-185); and 3) the B Box (residues 80 to 176, FIGS. 1A and 1C). […]

In assay [4] the test system is Klebsiella pneumoniae biofilms. The assay can be described thus: in vitro disruption of pre-formed biofilms, LIVE/DEAD, CLSM and COMSTAT. The format is cell-based. The following applies: for disruption of established K. pneumoniae biofilms (average thickness, biomass): 200 nM added at 24 h, 16 h incubation; for % reduction in average thickness (AT), mean±SE / % reduction in biomass (BM), mean±SE: 200 nM added to pre-formed biofilms at 24 h, read at 40 h, vs untreated KP biofilms. How it is done: as §1
An in vitro biofilm assay was used to test the effect of HMGB1 and its variants on established bacterial biofilms. Applicant expressed, (in E. coli) and purified >95% human recombinant full length HMGB1 (rHMGB1; 1-215), a C45S mutated variant (mHMGB1) and the HMGB1 domains A Box (1-89), A+B Boxes (1-176), B Box (80-179), and B Box C106S (mB Box) (FIG. 3). […] To evaluate the effect of HMGB1 and its variants as well as a commercially available native bovine HMGB1 (used as a control) on established bacterial biofilms, each protein was added (at 200 nM), to pre-formed Klebsiella pneumoniae biofilms after 24 h of growth. After a 16 h incubation (40 h total biofilm growth), the biofilms were stained with LIVE/DEAD® and analyzed using confocal laser scanning microscopy (CLSM) and COMSTAT analysis to calculate the average thickness and total biomass of the biofilms. […] The results of this study lead to a noteworthy observation that a single dose of these non-antimicrobial compounds was able to disrupt recalcitrant biofilms. In addition, the HMGB1 variants have disrupted every bacterial species tested to date, which includes Uropathogenic E. coli, Burkholderia cenocepacia, Nontypeable Haemophilus influenzae (FIG. 6). A single dose at this concentration released of bacteria from their protective shield makes them vulnerable to clearance by antibiotics and the immune system.
Klebsiella pneumoniae (KP), a common cause of nosocomial infections was used for all BBs disruption assays. Human recombinant full length HMGB1 (rHMGB1; 1-215), a C45S mutation variant (mHMGB1) and the HMGB1 domains A Box (1-89), B Box (90-176), AB Boxes (1-176), B-linker Box (80-179), and B-linker Box C106S were expressed (in E. coli) and purified to >95%. To evaluate the effect of rHMGB1 and the various domains on established BBs, each protein species (200 nM) was added to pre-formed BBs at 24 h. At 40 h the BBs were washed, stained with LIVE/DEAD®, visualized via confocal laser scanning microscopy and images were analyzed by COMSTAT to calculate average thickness and biomass.

B1: A Box: HMGB1 domain A Box (1-89) with C-terminal linker, lacks B box and C tail (protein, UniProt P09429 1-89, looked up, fragment)
chain: MGKGDPKKPRGKMSSYAFFVQTCREEHKKKHPDASVNFSEFSKKCSERWKTMSAKEKGKFEDMAKADKARYEREMKTYIPPKGETKKKF
modifications: C-terminal linker
notes: HMGB1 domain A Box (1-89) with C-terminal linker, lacks B box and C tail
On to B1, for which, in assay [1], the “disruption of established Bc biofilms” value is recorded as “no significant effect”. For the same molecule, the “disruption of established UPEC biofilms” value in assay [2] is “no significant effect”. Further, in assay [3], the “disruption of established NTHI biofilms” value is listed as “no significant effect”. The “disruption of established K. pneumoniae biofilms (average thickness, biomass)” value (shortened to “disruption … (average thickness, biomass)”) in assay [4] is recorded as “no significant effect”.

B2: B-Box: HMGB1 domain B Box (90-176), listed beside B-linker Box in Experiment No. 1 (protein, UniProt P09429 90-176, looked up, fragment)
chain: KDPNAPKRPPSAFFLFCSEYRPKIKGEHPGLSIGDVAKKLGEMWNNTAADDKQPYEKKAAKLKEKYEKDIAAYRAKGKPDAAKKGVV
As for B2, in assay [4], the “% reduction in average thickness (AT), mean±SE” value was 63%±0.1 and the “% reduction in biomass (BM), mean±SE” value is 68%±0.02.

B3: nHMGB1: native HMGB1 purified from calf thymus (Chondrex, Inc), commercially available, used as a control (protein, UniProt P10103 2-215, looked up)
High mobility group protein B1: GKGDPKKPRGKMSSYAFFVQTCREEHKKKHPDASVNFSEFSKKCSERWKTMSAKEKGKFEDMAKADKARYEREMKTYIPPKGETKKKFKDPNAPKRPPSAFFLFCSEYRPKIKGEHPGLSIGDVAKKLGEMWNNTAADDKQPYEKKAAKLKEKYEKDIAAYRAKGKPDAAKKGVVKAEKSKKKKEEEEDEEDEEDEEEEEDEEDEEEEEDDDDE
With B3, the “disruption of established Bc biofilms” value in assay [1] was “equivalently disrupted”. Moreover, the “disruption of established UPEC biofilms” value in assay [2] was “equivalently disrupted”. The “disruption of established NTHI biofilms” value in assay [3] is given as “equivalently disrupted”. Besides, in assay [4], the “disruption … (average thickness, biomass)” value is on record as “equivalently disrupted”.

B4: AB Boxes: HMGB1 A and B domains (1-176), lacks the C tail (protein, UniProt P09429 1-176, looked up, fragment)
chain: MGKGDPKKPRGKMSSYAFFVQTCREEHKKKHPDASVNFSEFSKKCSERWKTMSAKEKGKFEDMAKADKARYEREMKTYIPPKGETKKKFKDPNAPKRPPSAFFLFCSEYRPKIKGEHPGLSIGDVAKKLGEMWNNTAADDKQPYEKKAAKLKEKYEKDIAAYRAKGKPDAAKKGVV
As for B4, in assay [1], the “disruption of established Bc biofilms” value was “retained full anti-biofilm activity”. Also, the “disruption of established UPEC biofilms” value in assay [2] is “retained full anti-biofilm activity”. Besides, the “disruption of established NTHI biofilms” value in assay [3] is “retained full anti-biofilm activity”. In assay [4], the “disruption … (average thickness, biomass)” value is “retained full anti-biofilm activity”; the “% reduction in average thickness (AT), mean±SE” value is reported as 64%±0.08; the “% reduction in biomass (BM), mean±SE” value was 73%±0.02.
